Reference: publication PMC11088064 (BMC Immunology, 2024)

What was measured:
hPD-1 on CHO cells [1] = molecular target: T1, hPD-1 on CHO cells (human, UniProt Q15116); assay: cell-based or functional assay
hPD-1 on CHO cells [2] = molecular target: T1, hPD-1 on CHO cells; assay: flow cytometry on cells; competition: PD-1-expressing CHO-S cells with serial dilutions of anti-PD-1 at 4 °C for 15 min, then human Fc (IgG1)-labeled PD-L1 at 4 °C for 1 h in PBS/2% BSA; bound PD-L1 detected with PE anti-human IgG1/3; settings: one partner purified
mPD-1 on CHO cells = molecular target: T2, mPD-1 on CHO cells (mouse, UniProt Q02242); assay: as above; settings: one partner purified
T2 construct: also called mPD-1-expressing CHO cells; cellular mPD-1; source: CHO cells, stably transfected (pCMV3 vector), on cells

[3] = molecular target: T3, hPD-1 P130A on HEK293T cells (Homo sapiens, UniProt Q15116, P130A); assay: flow cytometry on cells; shotgun mutagenesis alanine scan (Integral Molecular): hPD-1 wild type or mutants transiently expressed in HEK293 T cells, incubated with antibody, Alexa Fluor 488 secondary antibody; non-blocking control anti-PD-1 as reference; settings: one partner purified
T3 construct: programmed cell death 1 (PD-1), human, alanine mutant of the shotgun mutagenesis library; source: HEK293 T cells, transiently transfected, on cells

[4] = molecular target: T4, hPD-1 L128A on HEK293T cells (Homo sapiens, UniProt Q15116, L128A); assay: as above; settings: one partner purified
T4 construct: programmed cell death 1 (PD-1), human, alanine mutant of the shotgun mutagenesis library; source: HEK293 T cells, transiently transfected, on cells

[5] = molecular target: T5, hPD-1 I126A on HEK293T cells (Homo sapiens, UniProt Q15116, I126A); assay: as above; settings: one partner purified
T5 construct: programmed cell death 1 (PD-1), human, alanine mutant of the shotgun mutagenesis library; source: HEK293 T cells, transiently transfected, on cells
T5 sequence (Q15116 25-288 I126A): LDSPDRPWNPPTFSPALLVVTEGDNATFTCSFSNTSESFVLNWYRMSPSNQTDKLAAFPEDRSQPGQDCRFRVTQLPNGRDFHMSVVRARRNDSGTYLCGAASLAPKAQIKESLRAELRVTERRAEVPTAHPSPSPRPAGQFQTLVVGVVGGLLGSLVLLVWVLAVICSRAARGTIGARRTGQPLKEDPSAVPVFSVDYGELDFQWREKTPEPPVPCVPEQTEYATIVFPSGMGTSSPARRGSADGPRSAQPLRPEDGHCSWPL

T1 sequence (Q15116 25-288): as the sequence (Q15116 25-288 I126A) above, with A102I counted along it
T3 sequence (Q15116 25-288 P130A): as the sequence (Q15116 25-288 I126A) above, with A102I, P106A counted along it
T2 sequence (Q02242 25-288): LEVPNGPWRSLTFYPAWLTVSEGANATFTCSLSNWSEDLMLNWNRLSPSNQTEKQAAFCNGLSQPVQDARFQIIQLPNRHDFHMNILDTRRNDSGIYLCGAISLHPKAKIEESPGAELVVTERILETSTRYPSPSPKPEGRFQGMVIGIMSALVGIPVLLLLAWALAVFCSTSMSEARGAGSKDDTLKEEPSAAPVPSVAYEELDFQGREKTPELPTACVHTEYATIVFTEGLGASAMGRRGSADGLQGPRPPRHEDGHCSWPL
T4 sequence (Q15116 25-288 L128A): as the sequence (Q15116 25-288 I126A) above, with A102I, L104A counted along it

reporter assay: luciferase (NFAT-RE) in Jurkat T cells expressing hPD-1 with human PD-L1 aAPC/CHO-K1 cells; IC50 of blocking hPD-1/hPD-L1 (hPD-1 on CHO cells [1]): 6.3 nM
IC50 (hPD-1 on CHO cells [2]): 9.9 nM
IC50 (mPD-1 on CHO cells): 6.7 nM
B1: GNUV201 (antibody, V domains shown)
VH: QVQLVQSGAEVKKPGASVKVSCKASGYTFTGYWMHWVRQAPGQGLEWIGMIHPNSDTTTYNEKFKNRVTMTRDTSISTAYMELSRLRSDDTAVYYCAGTDQAAWFAFWGQGTTVTVSS
VL: DIVMTQTPLSLSVTPGQPASISCRSSQNIVHSQGDTYLEWYLQKPGQSPQLLIYKVSKRFSGVPDRFSGSGSGTDFTLKISRVEAEDVGVYYCFQGSHVPWTFGGGTKVEIK
notes: humanized VH: CDRs of mouse clone 1G1 grafted into human IgG framework, with select point mutations; human IgG4 heavy chain constant region, hinge-stabilised S228P variant; IgG4 (S228P); the data statement says that datasets are available on request; also called humanized GNUV201; anti-PD-1; copies: 2 + 2
percent of WT PD-1 control binding [3]: 19.5%
percent of WT PD-1 control binding [4]: 38.5%
percent of WT PD-1 control binding [5]: 46.6%
